Measured values taken from US7449443B2, “Method for stabilization of proteins using non-natural amino acids” (California Institute of Technology, priority 2000, dated 2008).

Assays:
[1] = tested on: E. coli leucine auxotroph SG13009; assay: Analog incorporation assay: A1 expression in leucine auxotroph; type: cell-based; conditions: leucine-free medium supplemented with analog, western blot
Description: Analog Incorporation Assay. The expression vector pQE-A1, which contains the coding sequences for the protein A1 (FIG. 4A) was obtained from US Army Natick RD&E Center (Natick, Mass.). The E. coli leucine auxotroph SG13009 was obtained from Qiagen (Chatsworth, Calif.) and transformed with plasmids pREP4 and pQE-A1, to yield the expression host […] medium (30 ml) supplemented with 1 mM MgSO4, 1 mM CaCl2, […], 1 mg/L thiamin and the antibiotics ampicillin (200 mg/L) and kanamycin (25 mg/L) were inoculated with 1 ml of an overnight 2×YT culture of the expression strain. […] The supernatant was removed and the cell pellets were washed with 0.9% NaCl and sedimented (5000 g, 10 min, 4° C.). The washing and sedimentation steps were repeated three times to remove residual leucine. The washed cells were then resuspended in 31 ml of supplemented […] medium, without leucine. Aliquots (5 ml) were added to test tubes containing no leucine (negative control), L-leucine (20 mg/L, positive control), DL-trifluoroleucine (40 mg/L) or DL-hexafluoroleucine (40 mg/L). The cultures were grown for 10 min at 37° C., and isopropyl-β-D-thiogalactopyranoside (IPTG) was added to a final concentration of 1 mM. […] The whole cell lysate was analyzed by 15% SDS-PAGE. The proteins were detected by western blotting with an antibody specific for the N-terminal His-Tag of A1 (FIG. 4B).

LeuRS = LeuRS (Escherichia coli, UniProt P07813); assay: Level of Tfl incorporation versus leucine concentration in expression medium; type: cell-based, E. coli; conditions: estimated from 50% substitution at leucine 8 mg/L (50 μM) and Tfl (DL) 100 mg/L (540 μM)
Description: Normal leucine concentration in expression medium is 40 mg/L. The extent of incorporation is determined by amino acid analysis.
Protein Expression and Purification. M9 medium (1 L) supplemented as described above was inoculated with 30 ml of fresh overnight culture of the expression strain. After the culture had grown to OD600 of 1.0, it was subjected to centrifugation and washing procedures as described above. The cell pellet was suspended in 1 L M9 medium supplemented with trifluoroleucine (100 mg/L) and leucine in appropriate concentrations. IPTG was added after 10 min to induce protein expression. The expression of protein was monitored by removing an aliquot (1 ml) of the culture every hour and analyzing by SDS-PAGE. Cells were collected after 3 hr by centrifugation (5000 g, 15 min, 4° C.). The pellets were resuspended in 20 ml of buffer A and stored at −80° C. overnight. […] Extent of trifluoroleucine incorporation was determined by amino acid analysis (DNA/Protein Analysis Facility, Cornell University) and MALDI mass spectrometry (Protein/Peptide Micro Analytical Laboratory, Caltech).
The degree of substitution is determined through the diminution of leucine mole fractions from amino acid analysis (AAA). […]

[2] = tested on: nonspecific sequence (NON) oligonucleotides; assay: Mobility shift (gel-retardation) assay, nonspecific sequence; type: binding
Text: (§1) (FIG. 3B) Leu-bZip binds to both the AP-1 and CREB binding sites with equal affinities even though the spacing between the half-sites of DNA is different.

[3] = molecular target: oligonucleotides containing the CREB binding site; assay: Mobility shift (gel-retardation) assay, CREB; conditions: densitometry analysis of mobility shift assay
Text: as §1

[4] = molecular target: oligonucleotides containing the AP-1 binding site; assay: Mobility shift (gel-retardation) assay, AP-1; conditions: densitometry analysis of mobility shift assay
Text: as §1

[5] = CD thermal unfolding of GCN4-p1 coiled-coil peptides; type: physicochemical
Description: (§2) Circular Dichroism (CD) Analysis. CD spectra were recorded on an Aviv 62DS spectropolarimeter (Lakewood, N.J.) in PBS buffer, pH 7.4. All peptide concentrations were determined by amino acid analysis of a stock solution (5 mg/ml). Experiments were performed in a rectangular cell with pathlength of 1 cm for low concentration samples and pathlength of 1 mm for high concentration samples. Spectra were scanned from 250 nm to 200 nm with data taken every 1 nm. The temperature of the solution was maintained by a thermostatically controlled cuvette holder (HP model 89101A). Temperature scans were performed from 0° C. to 100° C. in 1° C. steps. Three scans were performed on a single sample and averaged. Each data point was collected after 30 seconds of thermal equilibration at the desired temperature. Urea titration scans were performed manually starting with the 8 M concentrated sample followed by serial dilution to the desired urea concentration. At each concentration, the sample was allowed to equilibrate for 5 min before recording the CD signal.
(§3) The analysis of CD thermal melting data was performed according to a previously described procedure using a two-state model (Schneider, J. P.; Lear, J. D.; DeGrado, W. F. J. Am. Chem. Soc. 1997, 119, 5742-5743). Temperature-dependent ellipticity data for each protein at different concentrations were fitted globally using a non-linear least-squares fitting procedure supplied with the Origin 6.0 software. For wild-type A1, the concentrations used for curve fitting were 10 and 100 μM, while 2 and 100 μm were used to fit data for the 92% fluorinated A1. The thermodynamic quantities Tm, ΔHm, ΔCp and Kd were parameters of the fitting procedure and are reported in the 1 M standard state. The free energy of folding at any temperature is given by equation 1. ΔG°=ΔHm(1−T/Tm)−ΔCp((Tm−T)+T1n(T/Tm) (1)
The thermal stabilities of the coiled-coil dimers of Leu-GCN4-p1 and Tfl-GCN4-p1 were examined by CD spectroscopy (FIG. 2B). A significant increase in the thermal stability of Tfl-GCN4-p1 as compared to Leu-GCN4-p1 is reflected in an elevation of the thermal denaturation temperature from 48° C. to 61° C. The 13° C. increase in Tm is remarkable in view of the fact that no increase in the thermal stability of GCN4-p1 has been reported based solely on substitution of the leucine residues at the d-positions. […] As expected for a monomer-dimer equilibrium, the denaturation curves depend on the peptide concentrations, and their midpoints shift to higher temperature as the concentrations of peptides are increased (FIG. 2C). The thermodynamic changes associated with the transition (folded dimer to unfolded monomers) is calculated from the melting curves by fitting the data to a monomer-dimer equilibrium (J. P. Schneider, J. D. Lear and W. F. DeGrado, J. Am. Chem. Soc. 119, 5742, 1997). Global analysis of the thermal unfolding curves at two different concentrations, approximately 85 μM and 3 μM, gave a calculated ΔH° of 60.2 kcal mol^−1, Tm of 385.4 K and ΔCp of 530 cal mol^−1 K^−1 for Tfl-GCN4-p1 (1 M standard state); the corresponding values for Leu-GCN4-p1 are 70.3 kcal mol^−1, 365.6 K and 740 cal mol^−1 K^−1 respectively.

[6] = Urea titration of A1 proteins by CD; type: physicochemical; conditions: 0° C., 10 μM protein, PBS, pH 7.4
Description: The fraction of unfolded protein is plotted against increasing urea concentration. Insert: The urea concentration at which 50% of protein is denatured is plotted against the extent of fluorination. (10 μM protein concentration, PBS buffer, pH 7.4).
as §2

[7] = CD thermal denaturation of A1 proteins with two-state global fitting; type: physicochemical; conditions: for ΔCp (1M) heat capacity change upon folding: 1M standard state, uncertainty 120; for ΔHm (1M) enthalpy of folding: at midpoint temperature, extrapolated to 1M standard state, uncertainty 4.8; for Tm (1M): extrapolated to 1M standard state by non-linear least square fit, uncertainty ± 1.5° C.; for Tm (10 μM): midpoint of thermal denaturation curve at 10 μM protein
Description: Insert: The thermal melting temperature (Tm) plotted as a function of level of incorporation. Tm is defined as the temperature at which 50% of the peptide has unfolded. The stability of the protein increases with increasing level of 2trifluoroleucine substitution. (10 μM protein concentration, PBS buffer, pH 7.4).
as §2, §3
Global thermodynamic fitting was used to obtain the thermodynamic quantities associated with the monomer to dimer transition for A1-WT and FA1-92. The intermediate level fluorinated proteins, FA1-17 and FA1-29 were not fitted using the procedure because the heterogeneity of the samples would not be described accurately by the two-state model. The presence of a heterogeneous population can be seen from the broadening of the thermal melting curves at substitution rates of 17 and 29%. However, even for the nearly completely substituted FA1-92, the protein sample was still a mixed population because Tfl was used as an equal molar mixture of (2S, 4S) and (2S, 4R) diastereomers. The free energy of unfolding for FA1-92 was 2.4 kcal/mol more favorable than A1-WT at 37° C., which corresponded to 0.4 kcal/mol of stabilizing energy per Tfl molecule involved at the helix interface. Considering the large number of leucines packed in the hydrophobic core of proteins, the additive stabilizing effects of Tfl can be quite substantial.

[8] = global analysis of thermal unfolding curves, 1 M standard state

Chain of LeuRS (P07813 whole entry): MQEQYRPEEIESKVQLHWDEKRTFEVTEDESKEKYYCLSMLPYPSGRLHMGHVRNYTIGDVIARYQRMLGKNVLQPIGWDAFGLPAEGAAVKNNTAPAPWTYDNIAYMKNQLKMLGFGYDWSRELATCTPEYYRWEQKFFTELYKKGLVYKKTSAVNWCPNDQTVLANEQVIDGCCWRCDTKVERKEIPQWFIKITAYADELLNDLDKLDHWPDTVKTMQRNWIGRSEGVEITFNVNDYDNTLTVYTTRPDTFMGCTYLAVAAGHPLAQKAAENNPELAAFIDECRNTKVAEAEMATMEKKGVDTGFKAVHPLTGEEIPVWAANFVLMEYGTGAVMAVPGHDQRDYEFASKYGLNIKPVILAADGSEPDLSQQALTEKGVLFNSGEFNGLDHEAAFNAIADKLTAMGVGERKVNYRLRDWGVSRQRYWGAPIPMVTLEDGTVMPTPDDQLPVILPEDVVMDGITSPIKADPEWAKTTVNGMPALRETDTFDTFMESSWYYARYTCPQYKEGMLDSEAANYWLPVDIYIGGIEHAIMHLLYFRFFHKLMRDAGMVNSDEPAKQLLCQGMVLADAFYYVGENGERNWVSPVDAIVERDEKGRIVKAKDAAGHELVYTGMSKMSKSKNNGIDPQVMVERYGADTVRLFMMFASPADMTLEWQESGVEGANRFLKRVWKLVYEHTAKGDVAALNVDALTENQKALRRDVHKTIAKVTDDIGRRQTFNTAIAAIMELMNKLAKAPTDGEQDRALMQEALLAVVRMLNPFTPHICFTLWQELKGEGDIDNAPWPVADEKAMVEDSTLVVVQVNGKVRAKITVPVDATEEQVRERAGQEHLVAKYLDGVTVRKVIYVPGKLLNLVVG

Q: For `CC(C[C@H](N)C(=O)O)C(F)(F)F` (stereo partly shown) [Tfl, 5,5,5-trifluoroleucine], which “ability to support protein synthesis (A1 expression)” value [1] is on record?
A: support protein synthesis

Q: And the “specificity for LeuRS compared to leucine” value (LeuRS)?
A: reduced five times

Q: What does the source list for “Leu-bZip: wild-type 56 amino acid segment (residues 226-281) of the eukaryotic transcription factor GCN4”?
A: recognition of nonspecific (NON) sequences [2]: lack of protein-bound DNA; Kd [3]: 4.8 ± 0.5 nM; Kd [4]: 12.8 ± 1 nM

Q: For “Leu-GCN4-p1: wild type form of the leucine zipper peptide GCN4-p1, not acylated at the N-terminus [reference compound]”, which “thermal denaturation temperature (Tm)” value ([5]; CD spectroscopy, coiled-coil dimers) is on record?
A: 48 °C

Q: And the “ΔH°” value ([5]; global analysis of thermal unfolding curves at approximately 85 μM and 3 μM, 1 M standard state)?
A: 70.3 kcal/mol

Q: And the Tm [5, 8]?
A: 92.5 °C

Q: What about the ΔCp [5, 8] of the same molecule?
A: 740 cal mol^−1 K^−1

Q: With `N[C@@H](CC(C(F)(F)F)C(F)(F)F)C(=O)O` [Hfl, 5,5,5,5′,5′,5′-hexafluoroleucine] as the molecule, how does the “ability to support protein synthesis (A1 expression)” value [1] read?
A: does not support measurable protein synthesis

B1: FA1-92: trifluoroleucine-substituted A1 protein, 92% replacement of leucine by amino acid analysis (protein)
chain: MRGSHHHHHHGSMASGDLENEYAQLEREVRSLEDEAAELEQKVSRLKNEIEDLAEIGDLNNTSGIRRPAAKLN
Q: Which “Curea, 50% (Cm), midpoint urea denaturation concentration” value (“Curea, 50% (Cm)” below) [6] does the source give for B1 here?
A: 7 M

Q: And the “Tm elevation compared to A1-WT” value ([7]; 10 μM protein, PBS, pH 7.4)?
A: 13 °C

Q: What about the “ΔCp (1M) heat capacity change upon folding” value [7] of the same molecule?
A: −272 cal/mol-K

Q: What about the “free energy of unfolding more favorable than A1-WT” value ([7]; at 37° C.) of the same molecule?
A: 2.4 kcal/mol

Q: What about the “stabilizing energy per Tfl molecule involved at the helix interface” value ([7]; at 37° C.) of the same molecule?
A: 0.4 kcal/mol

Q: What about the “ΔHm (1M) enthalpy of folding” value [7] of the same molecule?
A: -77.0 kcal/mol

Q: What about the “Tm (1M)” value [7] of the same molecule?
A: 116 °C

Q: What about the “Tm (10 μM)” value ([7]; PBS, pH 7.4) of the same molecule?
A: 67 °C

Q: What about the “resistance to thermal and chemical denaturation” value ([7]; thermal and chemical (urea) unfolding studies) of the same molecule?
A: highly resistant

B2: A1-WT: wild type leucine-zipper protein A1 with eight leucine residues, expressed in E. coli (protein)
chain: MRGSHHHHHHGSMASGDLENEYAQLEREVRSLEDEAAELEQKVSRLKNEIEDLAEIGDLNNTSGIRRPAAKLN
Q: Which “Curea, 50% (Cm)” value [6] does the source give for B2 here?
A: 2.7 M

Q: What about the “Curea, 50% (Cm)” value ([6]; listed as Al-WT) of the same molecule?
A: 2.8 M

Q: And the “ΔCp (1M) heat capacity change upon folding” value [7]?
A: −252 cal/mol-K

Q: What about the “ΔHm (1M) enthalpy of folding” value [7] of the same molecule?
A: -70.9 kcal/mol

Q: What about the “Tm (1M)” value [7] of the same molecule?
A: 103 °C

Q: What about the “Tm (10 μM)” value ([7]; PBS, pH 7.4) of the same molecule?
A: 54 °C
